Experimental data taken from patent US20240309360A1 (GOVERNING COUNCIL OF THE UNIVERSITY OF TORONTO, published 2024).

Legend:
Assay in all cases: BioID2 proximity labelling, HEK293 cells
[1] = target: T1, SUZ12 tagged with BirA-FLAG (human; Aquifex aeolicus, UniProt Q15022 1-739)
T1 construct: not shown: BioID2 biotin ligase (BirA from Aquifex aeolicus) tag

[2] = target: T2, p300 (human, UniProt Q09472 2-2414)
T2 construct: Endogenous prey identified by mass spectrometry; also called EP300; CBP/p300 (with CBP)
T2 sequence (Q09472 2-2414 limits assumed): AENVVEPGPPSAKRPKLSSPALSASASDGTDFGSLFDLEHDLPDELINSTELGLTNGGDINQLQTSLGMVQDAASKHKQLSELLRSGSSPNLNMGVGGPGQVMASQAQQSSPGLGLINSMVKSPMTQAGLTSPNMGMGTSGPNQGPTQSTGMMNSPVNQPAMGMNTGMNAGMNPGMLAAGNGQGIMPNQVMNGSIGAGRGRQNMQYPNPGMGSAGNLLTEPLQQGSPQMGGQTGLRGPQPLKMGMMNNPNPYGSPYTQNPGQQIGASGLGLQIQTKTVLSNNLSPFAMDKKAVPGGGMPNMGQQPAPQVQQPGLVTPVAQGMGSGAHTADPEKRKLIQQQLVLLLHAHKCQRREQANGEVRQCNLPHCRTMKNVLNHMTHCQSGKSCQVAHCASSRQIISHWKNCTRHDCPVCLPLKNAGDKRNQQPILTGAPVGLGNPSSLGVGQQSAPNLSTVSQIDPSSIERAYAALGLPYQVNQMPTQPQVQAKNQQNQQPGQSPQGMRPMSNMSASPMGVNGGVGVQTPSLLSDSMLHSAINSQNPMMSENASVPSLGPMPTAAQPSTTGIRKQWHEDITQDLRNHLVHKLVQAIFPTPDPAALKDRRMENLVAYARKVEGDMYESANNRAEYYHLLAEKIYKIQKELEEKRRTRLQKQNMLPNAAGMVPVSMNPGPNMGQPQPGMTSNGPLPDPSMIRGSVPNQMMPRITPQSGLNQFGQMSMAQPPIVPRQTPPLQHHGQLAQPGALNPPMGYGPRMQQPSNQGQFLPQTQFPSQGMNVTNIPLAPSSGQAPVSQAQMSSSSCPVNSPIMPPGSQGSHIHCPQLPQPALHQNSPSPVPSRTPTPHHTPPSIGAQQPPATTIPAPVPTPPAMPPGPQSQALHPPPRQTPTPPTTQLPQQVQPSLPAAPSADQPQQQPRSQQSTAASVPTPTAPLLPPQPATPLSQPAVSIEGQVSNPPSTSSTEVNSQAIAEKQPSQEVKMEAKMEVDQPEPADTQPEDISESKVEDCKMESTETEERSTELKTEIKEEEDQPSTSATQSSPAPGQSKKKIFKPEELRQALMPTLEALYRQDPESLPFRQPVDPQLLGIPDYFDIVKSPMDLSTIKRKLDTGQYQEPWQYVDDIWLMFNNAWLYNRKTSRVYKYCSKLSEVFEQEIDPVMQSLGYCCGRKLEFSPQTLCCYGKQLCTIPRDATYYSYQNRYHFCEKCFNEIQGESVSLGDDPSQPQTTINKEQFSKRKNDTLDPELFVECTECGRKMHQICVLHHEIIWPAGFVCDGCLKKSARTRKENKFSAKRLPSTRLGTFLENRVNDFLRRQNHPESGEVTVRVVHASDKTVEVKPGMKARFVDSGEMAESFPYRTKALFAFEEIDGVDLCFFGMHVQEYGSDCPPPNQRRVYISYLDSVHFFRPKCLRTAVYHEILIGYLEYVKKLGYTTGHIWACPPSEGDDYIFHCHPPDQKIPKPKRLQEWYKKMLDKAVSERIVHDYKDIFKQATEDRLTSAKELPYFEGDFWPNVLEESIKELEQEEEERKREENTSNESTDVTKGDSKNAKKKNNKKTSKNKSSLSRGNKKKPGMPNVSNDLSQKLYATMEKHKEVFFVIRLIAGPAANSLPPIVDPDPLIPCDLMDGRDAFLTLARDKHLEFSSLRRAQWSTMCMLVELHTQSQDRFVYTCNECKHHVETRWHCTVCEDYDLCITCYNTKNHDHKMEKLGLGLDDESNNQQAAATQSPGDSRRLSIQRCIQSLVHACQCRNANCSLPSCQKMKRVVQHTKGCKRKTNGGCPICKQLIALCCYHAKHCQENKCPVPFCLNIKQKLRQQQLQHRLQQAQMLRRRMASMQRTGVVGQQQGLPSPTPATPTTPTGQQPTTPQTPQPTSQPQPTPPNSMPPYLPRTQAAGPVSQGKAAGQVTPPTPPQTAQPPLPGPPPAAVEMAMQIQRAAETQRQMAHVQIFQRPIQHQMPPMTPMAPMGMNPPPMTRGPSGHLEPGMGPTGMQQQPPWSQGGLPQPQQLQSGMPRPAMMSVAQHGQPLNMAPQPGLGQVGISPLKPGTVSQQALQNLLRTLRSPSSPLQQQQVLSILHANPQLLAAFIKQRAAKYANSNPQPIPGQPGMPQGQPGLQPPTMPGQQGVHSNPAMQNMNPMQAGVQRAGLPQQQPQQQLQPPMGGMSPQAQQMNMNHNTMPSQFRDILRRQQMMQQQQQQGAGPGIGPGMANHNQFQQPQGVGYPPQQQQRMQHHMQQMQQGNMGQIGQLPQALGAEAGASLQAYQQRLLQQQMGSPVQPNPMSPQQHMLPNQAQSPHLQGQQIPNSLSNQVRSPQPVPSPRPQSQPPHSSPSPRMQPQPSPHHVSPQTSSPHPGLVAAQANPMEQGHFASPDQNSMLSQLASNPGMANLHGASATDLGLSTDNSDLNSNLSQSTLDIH

[3] = target: T3, CBP (human, UniProt Q92793 2-2442)
T3 construct: Endogenous prey identified by mass spectrometry; also called CBP/p300 (with p300)

[4] = target: T4, SRF (Serum Response Factor) tagged with BirA-FLAG (human; Aquifex aeolicus, UniProt P11831 1-508)
T4 construct: not shown: BioID2 biotin ligase (BirA from Aquifex aeolicus) tag
T4 sequence (looked up): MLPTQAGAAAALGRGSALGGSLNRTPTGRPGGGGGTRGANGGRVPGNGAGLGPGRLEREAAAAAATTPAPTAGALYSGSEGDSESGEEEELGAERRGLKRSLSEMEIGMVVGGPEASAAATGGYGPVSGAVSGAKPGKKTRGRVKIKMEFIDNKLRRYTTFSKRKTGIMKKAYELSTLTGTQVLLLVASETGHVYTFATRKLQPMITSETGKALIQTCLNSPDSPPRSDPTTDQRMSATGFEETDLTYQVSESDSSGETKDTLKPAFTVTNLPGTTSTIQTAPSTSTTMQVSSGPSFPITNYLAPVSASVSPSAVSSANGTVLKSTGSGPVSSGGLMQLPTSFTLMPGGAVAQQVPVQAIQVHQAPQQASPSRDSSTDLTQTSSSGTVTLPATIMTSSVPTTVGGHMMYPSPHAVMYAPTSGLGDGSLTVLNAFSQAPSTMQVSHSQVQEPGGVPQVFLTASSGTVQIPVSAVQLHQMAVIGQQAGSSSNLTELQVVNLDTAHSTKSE

T1 sequence (Q15022 whole entry): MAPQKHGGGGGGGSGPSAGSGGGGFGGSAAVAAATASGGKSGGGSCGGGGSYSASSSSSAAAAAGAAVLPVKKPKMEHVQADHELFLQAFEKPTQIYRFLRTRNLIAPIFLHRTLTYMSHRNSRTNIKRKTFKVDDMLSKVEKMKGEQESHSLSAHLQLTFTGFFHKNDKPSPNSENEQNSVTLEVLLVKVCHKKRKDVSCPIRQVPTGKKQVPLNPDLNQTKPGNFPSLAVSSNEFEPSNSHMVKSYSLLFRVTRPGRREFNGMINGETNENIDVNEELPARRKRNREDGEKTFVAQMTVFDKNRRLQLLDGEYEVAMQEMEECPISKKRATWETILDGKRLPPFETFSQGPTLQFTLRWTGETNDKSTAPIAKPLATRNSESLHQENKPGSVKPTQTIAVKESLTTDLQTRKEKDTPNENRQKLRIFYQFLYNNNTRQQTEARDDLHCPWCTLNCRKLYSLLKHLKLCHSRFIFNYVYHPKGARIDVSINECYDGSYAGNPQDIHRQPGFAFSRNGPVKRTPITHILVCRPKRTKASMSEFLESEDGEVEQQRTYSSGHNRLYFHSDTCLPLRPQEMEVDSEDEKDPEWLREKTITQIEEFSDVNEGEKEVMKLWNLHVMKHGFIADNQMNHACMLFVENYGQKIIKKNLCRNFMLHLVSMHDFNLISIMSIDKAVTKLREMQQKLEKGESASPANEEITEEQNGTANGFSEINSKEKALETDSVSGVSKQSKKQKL

B1: MTF2/PCL2 (other, human, UniProt Q9Y483 1-593, looked up)
chain: MRDSTGAGNSLVHKRSPLRRNQKTPTSLTKLSLQDGHKAKKPACKFEEGQDVLARWSDGLFYLGTIKKINILKQSCFIIFEDSSKSWVLWKDIQTGATGSGEMVCTICQEEYSEAPNEMVICDKCGQGYHQLCHTPHIDSSVIDSDEKWLCRQCVFATTTKRGGALKKGPNAKALQVMKQTLPYSVADLEWDAGHKTNVQQCYCYCGGPGDWYLKMLQCCKCKQWFHEACVQCLQKPMLFGDRFYTFICSVCSSGPEYLKRLPLQWVDIAHLCLYNLSVIHKKKYFDSELELMTYINENWDRLHPGELADTPKSERYEHVLEALNDYKTMFMSGKEIKKKKHLFGLRIRVPPVPPNVAFKAEKEPEGTSHEFKIKGRKASKPISDSREVSNGIEKKGKKKSVGRPPGPYTRKMIQKTAEPLLDKESISENPTLDLPCSIGRTEGTAHSSNTSDVDFTGASSAKETTSSSISRHYGLSDSRKRTRTGRSWPAAIPHLRRRRGRLPRRALQTQNSEIVKDDEGKEDYQFDELNTEILNNLADQELQLNHLKNSITSYFGAAGRIACGEKYRVLARRVTLDGKVQYLVEWEGATAS
binding result [1]: binds

B2: SOX7 fused to BioID2 (BirA from Aquifex aeolicus) and FLAG (other, human;Aquifex aeolicus, UniProt Q9BT81 1-388, looked up)
chain: MASLLGAYPWPEGLECPALDAELSDGQSPPAVPRPPGDKGSESRIRRPMNAFMVWAKDERKRLAVQNPDLHNAELSKMLGKSWKALTLSQKRPYVDEAERLRLQHMQDYPNYKYRPRRKKQAKRLCKRVDPGFLLSSLSRDQNALPEKRSGSRGALGEKEDRGEYSPGTALPSLRGCYHEGPAGGGGGGTPSSVDTYPYGLPTPPEMSPLDVLEPEQTFFSSPCQEEHGHPRRIPHLPGHPYSPEYAPSPLHCSHPLGSLALGQSPGVSMMSPVPGCPPSPAYYSPATYHPLHSNLQAHLGQLSPPPEHPGFDALDQLSQVELLGDMDRNEFDQYLNTPGHPDSATGAMALSGHVPVSQVTPTGPTETSLISVLADATATYYNSYSVS
notes: Tetracycline-inducible bait in HEK293 Flp-In T-REx cells; not shown: BioID2 biotin ligase (BirA from Aquifex aeolicus), C-terminal tag
binding result [2]: binds | binding result [3]: binds

B3: ELK1 (other, human, UniProt P19419 1-428, looked up)
chain: MDPSVTLWQFLLQLLREQGNGHIISWTSRDGGEFKLVDAEEVARLWGLRKNKTNMNYDKLSRALRYYYDKNIIRKVSGQKFVYKFVSYPEVAGCSTEDCPPQPEVSVTSTMPNVAPAAIHAAPGDTVSGKPGTPKGAGMAGPGGLARSSRNEYMRSGLYSTFTIQSLQPQPPPHPRPAVVLPSAAPAGAAAPPSGSRSTSPSPLEACLEAEEAGLPLQVILTPPEAPNLKSEELNVEPGLGRALPPEVKVEGPKEELEVAGERGFVPETTKAEPEVPPQEGVPARLPAVVMDTAGQAGGHAASSPEISQPQKGRKPRDLELPLSPSLLGGPGPERTPGSGSGSGLQAPGPALTPSLLPTHTLTPVLLTPSSLPPSIHFWSTLSPIAPRSPAKLSFQFPSSGSAQVHIPSISVDGLSTPVVLSPGPQKP
binding result [4]: binds
